Values quoted from earlier work, collected in article PMC7772776.

Assays:
Cys145 = Cys145 (UniProt position 145, PILIPCHRVVC)
Cys88 = Cys88 (UniProt position 88, ADGSICLDILQ)
Cys29 = Cys29 (UniProt position 108, GSCGSCWAFGA)
Cys283 [1] = biological target: Cys283 (UniProt position 283, GYVLTCPSNLG)
Cys46 = Cys46 (UniProt position 47, DFTFVCPTELG)
Cys72 = Cys72 (UniProt position 72, VFGMGCFWGAE)
Cys25 [2] = biological target: Cys25 (UniProt position 158, GSCGSCWAFSA)
Cys283 [3] = biological target: Cys283 (UniProt position 283, GYVLTCPANLG)
Cys102 = Cys102 (UniProt position 102, KFLTPCYHPNV)
Cys87 = Cys87 (UniProt position 87, RLGRICLDVLK)
Cys124 = Cys124 (UniProt position 125, HPGDFCADAQG)
Cys25 [4] = biological target: Cys25 (UniProt position 157, GSCGSCWAFSA)
Cys125 = Cys125 (UniProt position 126, PGDFGCDAQGA)

Substance: O6-alkylguanine-DNA alkyltransferase (AGT) (Homo sapiens)
- pKa (Cys145): 5.3

Substance: Ubiquitin-conjugating enzyme E2 B (Ubc2b; 'Ubc2' in Table 1) (Homo sapiens)
- pKa (Cys88): 10.2

Substance: Cathepsin B (Rattus norvegicus)
- pKa (Cys29): 3.6

Substance: Muscle creatine kinase (HMCK) (Homo sapiens)
- pKa (Cys283 [1]): 5.6

Substance: Alkyl hydroperoxide reductase C (AhpC) (Salmonella (article gives genus only; Salmonella typhimurium inferred))
- pKa (Cys46): 5.9

Substance: Methionine sulfoxide reductase A E115Q (MmsrA E115Q) (Mus musculus; E115Q)
- pKa (Cys72): 8.2

Substance: Papain (papaya proteinase I) (Carica papaya)
- pKa (Cys25 [2]): 3.3

Substance: Muscle creatine kinase S285A (HMCK S285A) (Homo sapiens; S285A)
- pKa (Cys283 [3]): 6.7

Substance: Ubiquitin-conjugating enzyme UbcH10 C114S (Homo sapiens; C114S)
- pKa (Cys102): 10.9

Substance: Methionine sulfoxide reductase A (MmsrA) (Mus musculus)
- pKa (Cys72): 7.2

Substance: Ubiquitin-conjugating enzyme Ubc13 (Saccharomyces cerevisiae)
- pKa (Cys87): 11.1

Substance: Myoglobin G124C (Mb G124C) (Physeter macrocephalus (sperm whale); G124C)
- pKa (Cys124): 6.5

Substance: Papaya protease omega (caricain) (Carica papaya)
- pKa (Cys25 [4]): 2.9

Substance: Myoglobin A125C (Mb A125C) (Physeter macrocephalus (sperm whale); A125C)
- pKa (Cys125): 8.4
